Experimental findings from patent US20250084188A1 (published 2025) are described below.

What is called EC50 is the concentration needed to bring the measured effect to its halfway point.

Where a chain is given by its changes, count along the chain named.

The chains are these.
B1: 1E12 (IgG) (antibody, V domains shown)
VH: EVQLVESGGGLVQPGGSLRLSCAASGFTFSSYAMHWVRQAPGKGLEWVSAISSSGGTKYYADSVKGRFTISRDNSKNTLYLQMNSLRAEDTAVYYCAKGLQGGAGAFDIWGQGTLVTVSS
VL: DIQMTQSPSSLSASVGDRVTITCRASQSISNYLNWYQQKPGKAPKLLIYATSTLHSGVPSRFSGSGSGTDFTLTISSLQPEDFATYYCQQSYSFPWTFGQGTKVEIK
B2: F2 (IgG) (antibody, V domains shown)
VH: EVQLVESGGGLAQPGGSLRLSCAASGFTFSSYAMHWVRQAPGKGLEWVSSIKSSGGSKNYADSVKGRFTISRDNSKNTLYLQMNSLRAEDTAVYYCAKGYGASFDFWGQGTLVTVSS
VL: B1 VL with S28D, N31S, Y32W, T51A, T53R, H55Q, S91A
B3: A5 (IgG) (antibody, V domains shown)
VH: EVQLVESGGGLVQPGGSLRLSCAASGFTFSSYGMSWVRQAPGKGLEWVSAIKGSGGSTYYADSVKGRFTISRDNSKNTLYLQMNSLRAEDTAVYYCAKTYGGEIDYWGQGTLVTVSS
VL: B1 VL with N31R, Y32W, H55Q
B4: C5 (IgG) (antibody, V domains shown)
VH: EVQLVESGGGLVQPGGSLRLSCAASGFTFSSYAMSWVRQAPGKGLEWVSSISSSSGTTHYADSVKGRFTISRDNSKNTLYLQMNSLRAEDTAVYYCAKGGAFDYWGQGTLVTVSS
VL: B1 VL with S28D, N31R, Y32W, T51A, H55Q, W96L
B5: E7 (IgG) (antibody, V domains shown)
VH: EVQLVESGGGLVQPGGSLRLSCAASGFTFSSYAMHWVRQAPGKGLEWVSAISSSGGSIYYADSVKGRFTISRDNSKNTLYLQMNSLRAEDTAVYYCAKQGLSFDIWGQGTLVTVSS
VL: B1 VL with Y32W, T53R, H55Q, W96Y
B6: H7 (IgG) (antibody, V domains shown)
VH: EVQLVESGGGLVQPGGSLRLSCAASGFTFSSYGMHWVRQAPGKGLEWVSGISSSGGSKYYADSVKGRFTISRDNSKNTLYLQMNSLRAEDTAVYYCAKHGHQQMDFWGQGTLVTVSS
VL: B1 VL with N31S, Y32W, T51A, T53R, H55Q, S91T
B7: F4 (IgG) (antibody, V domains shown)
VH: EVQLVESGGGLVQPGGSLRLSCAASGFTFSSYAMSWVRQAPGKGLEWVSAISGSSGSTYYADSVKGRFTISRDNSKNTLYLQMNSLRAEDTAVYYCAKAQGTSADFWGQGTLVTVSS
VL: B1 VL with N31R, Y32W, T51A, T53R, H55Q, F94T
B8: D2 (IgG) (antibody, V domains shown)
VH: EVQLVESGGGLVQPGGSLRLSCAASGFTFSSYAMHWVRQAPGKGLEWVSAISSSSGTIYYADSVKGRFTISRDNSKNTLYLQMNSLRAEDTAVYYCAKDFGAVFDYWGQGTLVTVSS
VL: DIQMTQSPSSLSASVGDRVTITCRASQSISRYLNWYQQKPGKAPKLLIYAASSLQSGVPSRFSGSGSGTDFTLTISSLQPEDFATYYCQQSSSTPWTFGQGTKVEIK
B9: H1 (IgG) (antibody, V domains shown)
VH: B8 VH with H35S, S52R, S55G, I58T, D99S, F100Q, G101S, A102T, F104A
VL: B1 VL with Y32W, T53R, H55Q, W96L
B10: A7 (IgG) (antibody, V domains shown)
VH: B8 VH with S31D, H35S, A50G, S55G, D99A, F100I, A102S, V103W, F104A, Y106I
VL: B1 VL with S28D, T51A, T53S, H55Q, W96Y

The target of this test is human chitinase-3-like protein 1 (hCHI3L1) (human, UniProt P36222 22-383). As to the kind of experiment: ELISA. In general terms: ELISA stands for enzyme-linked immunosorbent assay.
Sequence of human chitinase-3-like protein 1 (hCHI3L1) (P36222 22-383): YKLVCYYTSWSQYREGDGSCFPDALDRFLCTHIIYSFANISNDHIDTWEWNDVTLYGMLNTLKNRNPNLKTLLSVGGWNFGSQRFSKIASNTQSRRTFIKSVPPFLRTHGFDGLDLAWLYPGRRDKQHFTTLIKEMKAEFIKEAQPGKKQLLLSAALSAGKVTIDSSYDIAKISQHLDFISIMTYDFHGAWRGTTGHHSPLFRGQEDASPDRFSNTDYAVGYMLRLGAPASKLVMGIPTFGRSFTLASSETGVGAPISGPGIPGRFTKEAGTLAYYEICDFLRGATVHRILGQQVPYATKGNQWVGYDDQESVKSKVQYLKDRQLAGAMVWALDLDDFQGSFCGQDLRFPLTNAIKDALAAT
B1 showed an EC50 of 0.139 nM. This lies in the sub-nanomolar range. As for B2, the figure is 1.75 nM; as for B3, 0.972 nM; as for B4, 0.093 nM. Turning to B5, a half-maximal response (EC50) required 0.348 nM. Next, B6: 1.38 nM. Next, B7: 0.111 nM; B8: 0.577 nM; B9: 0.496 nM. Next, B10: 2.05 nM.
